Where “and” joins values, the source holds several entries; their conditions need not be identical. Identical values can stand only once.
B1: nBT062-SPDB-DM4 (antibody, human IgG4, kappa, V domains shown)
VH: QVQLQQSGSELMMPGASVKISCKATGYTFSNYWIEWVKQRPGHGLEWIGEILPGTGRTIYNEKFKGKATFTADISSNTVQMQLSSLTSEDSAVYYCARRDYYGNFYYAMDYWGQGTSVTVSS
VL: DIQMTQSTSSLSASLGDRVTISCSASQGINNYLNWYQQKPDGTVELLIYYTSTLQSGVPSRFSGSGSGTDYSLTISNLEPEDIGTYYCQQYSKLPRTFGGGTKLEIKR
modifications: maytansinoid DM4 linked by disulfide bond through SPDB linker; residues carrying the drug not stated
B2: nBT062 (antibody, human IgG4, kappa, V domains shown)
VH: B1 VH
VL: B1 VL
notes: also called cB-B4; chimeric B-B4
B3: B-B4-SPP-DM1 (antibody, V domains shown)
VH: B1 VH
VL: DIQMTQSTSSLSASLGDRVTISCSASQGINNYLNWYQQKPDGTVELLIYYTSTLQSGVPSRFSGSGSGTDYSLTISNLEPEDIGTYYCQQYSKLPRTFGGGTKLEIK
modifications: maytansinoid DM1 linked through SPP linker; residues carrying the drug not stated
notes: Variable domains as for B-B4 (see its note)
B4: nBT062-SMCC-DM1 (antibody, human IgG4, kappa, V domains shown)
VH: B1 VH
VL: B1 VL
modifications: maytansinoid DM1 linked through non-cleavable SMCC linker; residues carrying the drug not stated
B5: nBT062-SPP-DM1 (antibody, human IgG4, kappa, V domains shown)
VH: B1 VH
VL: B1 VL
modifications: maytansinoid DM1 linked through SPP linker; residues carrying the drug not stated
notes: an average of 3.5 DM1 per antibody is stated for nBT062-DM1 conjugates

Key:
[1] = molecular target: T1, CD138 on the cell surface (human, UniProt P18827 23-310); assay: cell-based or functional assay
T1 sequence (looked up): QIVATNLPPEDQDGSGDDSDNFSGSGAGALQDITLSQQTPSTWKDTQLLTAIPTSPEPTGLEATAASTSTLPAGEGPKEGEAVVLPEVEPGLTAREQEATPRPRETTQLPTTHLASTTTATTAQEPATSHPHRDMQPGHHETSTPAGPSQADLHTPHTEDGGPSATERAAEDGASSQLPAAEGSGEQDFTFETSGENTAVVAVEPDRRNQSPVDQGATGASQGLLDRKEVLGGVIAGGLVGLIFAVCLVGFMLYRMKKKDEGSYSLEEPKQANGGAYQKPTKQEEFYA

[2] = molecular target: T1, CD138 on the cell surface; assay: FACS on CD138+ OPM-2 cells, fluorescence-labelled secondary antibody, mean fluorescence against concentration
Text: The cells were washed and CD138-bound antibody or conjugates were detected using a fluorescence-labeled secondary antibody in FACS analysis. The mean fluorescence measured in these experiments was plotted against the antibody concentration.

[3] = molecular target: T2, Soluble CD138 antigen from U-266 cell culture supernatant, biotinylated (human, UniProt P18827 23-245, limits assumed, biotinylated on primary amino groups with EZ-Link Sulfo-NHS-LC-Biotin); assay: BIACORE C, biotinylated soluble CD138 on SA chip, conjugate as analyte; single experiment
T2 construct: Captured on a streptavidin SENSOR CHIP SA for the BIACORE assay; Soluble (shed) form; also called bCD138; biotinylated CD138
T2 sequence (looked up): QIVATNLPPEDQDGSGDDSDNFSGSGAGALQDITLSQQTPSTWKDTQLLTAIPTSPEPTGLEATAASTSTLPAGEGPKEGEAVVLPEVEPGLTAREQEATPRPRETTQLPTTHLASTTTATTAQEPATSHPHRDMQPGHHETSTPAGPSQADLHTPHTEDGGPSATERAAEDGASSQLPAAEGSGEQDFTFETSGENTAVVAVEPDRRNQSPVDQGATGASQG

[4] = molecular target: T2, Soluble CD138 antigen from U-266 cell …; assay: BIACORE C, biotinylated soluble CD138 on SA chip, conjugate as analyte; mean of three experiments

Binder | EC50 (read off the curve) [2] [nM] | also measured
B1 |  | Sensitivity IC50 (nM), cell line NCI-H929 (MM) [1]: 0.38 nM
B2 | ~1 | 
B3 |  | Kd [3]: 2.6 nM and 2.7 nM; Kd [4]: 2.6 nM
B4 | ~1 | 
B5 | ~1 | 

— US20110123554A1 (BIOTEST, published 2011)
